Positions count from the first letter of the chain named.
B1: ADT1-4 (parental) (antibody, IgG1, V domains shown)
VH: QVQLQQSGPGLVKPSQTLSLTCAISGDSVSSKSAAWNWIRQSPSRGLEWLGRTYYRSKWSTDYAASVKSRITINPDTSKNQLSLQLNSVTPEDTAVYYCARTWSGYVDVWGQGTLVTVSS
VL: DIQMTQSPPALSASVGDRVTITCRASQDINDWLAWYQHKPGKAPKLLIYDASSLESGVPSRFSGSGSGTEFTLTISSLQPDDFATYYCQQSYSTPQVTFGQGTRLEIK
notes: IgG1; also called G04; 1245_P02_G04
B2: ADT1-7 (parental) (antibody, IgG1, V domains shown)
VH: QVQLVESGGGLVKPGGSLRLSCAASGFTFSDYYMSWIRQAPGKGLEWVSYISSSGSTIYYADSVKGRFTISRDNAKNSLYLQMNSLRAEDTAVYYCARVDYADAFDIWGQGTLVTVSS
VL: DIQMTQSPSSLSASVGDRVTIACRAGQSIGTYLNWYQQKPGKAPKLLIYVASSLQSGVPSRFSGSGSGTEFTLTISSLQPEDFATYYCQQSYSTLLTFGRGTKVEIK
notes: IgG1; also called E07; 1245_P01_E07
B3: ADT1-7-61 (antibody, IgG1, V domains shown)
VH: B2 VH with Q1E, V99D, A102D
VL: B2 VL with Y92A, T94E
notes: IgG1
B4: ADT1-7-3 (antibody, IgG1, V domains shown)
VH: B2 VH with Q1E, D100S, D103E
VL: B2 VL with T94G, L96D
notes: IgG1
B5: ADT1-7-20 (antibody, IgG1, V domains shown)
VH: B2 VH with Q1E, A102Q, D103E
VL: B2 VL with T94G, L96D
notes: IgG1
B6: ADT1-4-139 (antibody, IgG1, V domains shown)
VH: B1 VH with Q1E, S104V, V109Y
VL: B1 VL with S60L, S91G, V97L
notes: IgG1
B7: ADT1-4-2/ADT3-2 (bispecific antibody)
heavy: EVQLQQSGPGLVKPSQTLSLTCAISGDSVSSKSAAWNWIRQSPSRGLEWLGRTYYRSKWSTDYAASVKSRITINPDTSKNQLSLQLNSVTPEDTAVYYCARTWVGYVDRWGQGTLVTVSSASTKGPSVFPLAPSSKSTSGGTAALGCLVKDYFPEPVTVSWNSGALTSGVHTFPAVLQSSGLYSLSSVVTVPSSSLGTQTYICNVNHKPSNTKVDKKVEPKSCDKTHTCPPCPAPELAGAPSVFLFPPKPKDTLMISRTPEVTCVVVDVSHEDPEVKFNWYVDGVEVHNAKTKPREEQYNSTYRVVSVLTVLHQDWLNGKEYKCKVSNKALPAPIEKTISKAKGQPREPQVYTLPPSRDELEEGPVSLTCLVKGFYPSDIAVEWESTYGPENNYKTTPPVLDSDGSFFLYSKLTVSYWRWYKGNVFSCSVMHEALHNHYTQKSLSLSPG
light: DIQMTQSPPALSASVGDRVTITCRASQDINDWLAWYQHKPGKAPKLLIYDASSLESGVPLRFSGSGSGTEFTLTISSLQPDDFATYYCQQKYSAPQVTFGQGTRLEIKRTVAAPSVFIFPPSDEQLKSGTASVVCLLNNFYPREAKVQWKVDNALQSGNSQESVTEQDSKDSTYSLSSTLTLSKADYEKHKVYACEVTHQGLSSPVTKSFNRGEC
notes: mAb2; also called ADT1-4-2 × LEE; ADT1-4-2xLEE
B8: ADT1-4/ADT3-1 (bispecific antibody, human IgG1, V domains shown)
VH: B1 VH
VL: DIQMTQSPPALSASVGDRVTITCRASQDINDWLAWYQHKPGKAPKLLIYDASSLESGVPSRFSGSGSGTEFTLTISSLQPDDFATYYCQQSYSTPQVTFGQGTRLEIKR
notes: mAb2; also called G04 × FS1-67; G04 FS1-67
B9: ADT1-4-2/ADT3-3 (bispecific antibody, human IgG1, kappa)
heavy: EVQLQQSGPGLVKPSQTLSLTCAISGDSVSSKSAAWNWIRQSPSRGLEWLGRTYYRSKWSTDYAASVKSRITINPDTSKNQLSLQLNSVTPEDTAVYYCARTWVGYVDRWGQGTLVTVSSASTKGPSVFPLAPSSKSTSGGTAALGCLVKDYFPEPVTVSWNSGALTSGVHTFPAVLQSSGLYSLSSVVTVPSSSLGTQTYICNVNHKPSNTKVDKKVEPKSCDKTHTCPPCPAPELAGAPSVFLFPPKPKDTLMISRTPEVTCVVVDVSHEDPEVKFNWYVDGVEVHNAKTKPREEQYNSTYRVVSVLTVLHQDWLNGKEYKCKVSNKALPAPIEKTISKAKGQPREPQVYTLPPSRDELDEGGPVSLTCLVKGFYPSDIAVEWESTYGPENNYKTTPPVLDSDGSFFLYSKLTVSYWRWVKGNVFSCSVMHEALHNHYTQKSLSLSPG
light: B7 light
notes: also called ADT1-4-2xFS1-65
B10: ADT1-4-2/ADT3-1 (bispecific antibody)
heavy: B7 heavy with L361T, E362D, E363D
light: B7 light
notes: mAb2; also called ADT1-4-2xFS1-67
B11: ADT1-4-2/ADT3-4 (bispecific antibody)
heavy: B7 heavy with L361T, E363S, A381V, T387K, Y388F, Y417N, W418L, Y421T, N424H
light: B7 light
notes: mAb2; also called ADT1-4-2x747
B12: ADT1-4-2/ADT3-6 (bispecific antibody)
heavy: B7 heavy with T387N, Y388G, G389Q
light: B7 light
notes: mAb2; also called ADT1-4-2xLEE2
B13: ADT1-4-2/ADT3-7 (bispecific antibody)
heavy: B7 heavy with Y421Q, K422Q
light: B7 light
notes: mAb2; also called ADT1-4-2xLEE3
B14: ADT1-4-6/ADT3-2 (bispecific antibody, V domains shown)
VH: B1 VH with Q1E, S104A, V107P
VL: B1 VL with S60L, S91K, S93K
notes: mAb2, human IgG1; light constant region not tied; also called ADT1-4-6 × LEE
B15: ADT1-4-138/ADT3-2 (bispecific antibody, V domains shown)
VH: B1 VH with Q1E, S104A, G105D
VL: B1 VL with S91R, P95D
notes: mAb2, human IgG1; light constant region not tied; also called ADT1-4-138 × LEE; ADT1-4-138xADT3-2

Target: T1, Vδ1 TCR on human Vδ1-positive γδ T cells (human, UniProt A0A1B0GX56 22-115)
T1 construct: also called Vδ1 γδ T-cells; cell surface Vδ1 TCR
Test: flow cytometry binding to γδ T cells, Donor 1 (ATS006); column head printed IC50 (nM), the text calls it EC50 of binding; same value in the table of FIG. 11C
Description: (§1) (FIGS. 11A-11B) The level of binding by the V61 mAbs to two γδ T cell donors, ATS006 (FIG. 11A) and TS164 (FIG. 11B). γδ T cells were stained with varying concentrations of Vδ1 mAbs, followed by a fluorescent anti-human IgG detection antibody (xxx). All incubation steps were performed at 4° C. and mAb binding was determined using flow cytometry to measure the median level of fluorescence. Logarithmic four parameter dose-response curves were fitted using GraphPad Prism 9.
(§2) A range of target cells were assayed to determine the specificity and affinity of Vδ1 mAb binding. This included expanded skin-derived Vδ1 γδ T-cells, HEK293T cells, Raji cells, and multiple leukocyte subsets within human primary blood mononuclear cells. Adherent or semi-adherent cells (skin-derived Vδ1 γδ T-cells, HEK293T) were detached from tissue culture flask and resuspended in PBS. Similarly, non-adherent cell types (Raji, PBMC), were harvested and resuspended in PBS. Cells were seeded at a final density of 100,000 cells per well in v-bottom 96-well plates. Cells underwent centrifugation and the cell pellets were resuspended in FcR blocking reagent according to the manufacturer's instructions, and incubated for 20 minutes at 4C prior to a further wash. […] To determine the quantity of mAb bound to the cell surface, the cells were then stained with a murine anti-human IgG secondary antibody, conjugated to APC (product code . . . , dilution: 1:100). For Vδ1 γδ T-cells, HEK293T and Raji, the cells were also stained solely with a viability dye.

T1 sequence (A0A1B0GX56 22-115 limits assumed, stated change not applied): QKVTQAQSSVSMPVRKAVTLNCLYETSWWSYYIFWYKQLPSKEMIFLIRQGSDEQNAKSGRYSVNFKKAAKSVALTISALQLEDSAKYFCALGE

| EC50 [nM] | Binder |
| --- | --- |
| 108 | B1 |
| > 100 | B2 |
| 93 | B3 |
| 5.15 | B4 |
| 37.2 | B5 |

Target: T2, cyno antigen DV1/GV77, recombinant cynomolgus Vδ1 γδ TCR heterodimer (cynomolgus monkey)
T2 construct: also called cyno TRDV1; Cyno DV1-77; not shown: Delta-chain CDR3/J and constant part, the GV77 gamma chain, and any tags
Test: DELFIA ELISA, cyno antigen, heat map; all column labels read ADT1-4-110, clone assigned by the HC/LC CDR3 pair as in FIG. 4A and FIGS. 22-23

T2 sequence (delta, as listed by the source limits assumed): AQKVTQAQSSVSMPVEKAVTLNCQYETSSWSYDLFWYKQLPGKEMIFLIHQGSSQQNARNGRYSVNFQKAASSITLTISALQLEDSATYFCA

| Heat Map (Cyno) value (ELISA signal) | Binder |
| --- | --- |
| 57600 | B6 |

Target: T1, Vδ1 TCR on human Vδ1-positive γδ T cells
Test: flow cytometry binding to γδ T cells, Donor 2 (TS164); column head printed IC50 (nM), the text calls it EC50 of binding; same value in the table of FIG. 11C
Description: as §1, §2

| EC50 [nM] | Binder |
| --- | --- |
| 576 | B1 |
| 226 | B2 |
| 196 | B3 |
| 0.952 | B4 |
| 2.68 | B5 |

Target: T3, L1 (DV1-GV4), recombinant soluble human Vδ1/Vγ4 γδ TCR heterodimer (human)
T3 construct: Biotinylated in the DELFIA ranking assay; also called human TRDV1; human Vδ1 antigen
Test: SPR (Reichert 4SPR), antibody on Protein A chip, human Vδ1 antigen as analyte, 1:1 fit, mean of two replicates (Avg KD)
Excerpt: (§3) The binding affinity of the antibodies to target (i.e. the Vδ1 chain of a γ TCR) is established by SPR analysis using a Reichert 4SPR instrument (Reichert Technologies).
(§4) The binding interaction of Vδ1 and the affinity-matured mAbs were modelled according to Langmuir 1:1 binding.

T3 sequence (main, as listed by the source): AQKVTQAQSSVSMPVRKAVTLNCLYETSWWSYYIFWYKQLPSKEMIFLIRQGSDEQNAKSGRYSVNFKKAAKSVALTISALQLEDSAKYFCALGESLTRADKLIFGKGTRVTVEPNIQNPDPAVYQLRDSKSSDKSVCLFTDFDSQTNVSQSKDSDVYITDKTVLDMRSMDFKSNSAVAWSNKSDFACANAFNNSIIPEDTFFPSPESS

| Kd [nM] | Binder |
| --- | --- |
| 38.1 | B2 |
| 1.04 | B3 |
| 3.78 | B4 |
| 4.99 | B5 |

Target: T1, Vδ1 TCR on human Vδ1-positive γδ T cells
Test: flow cytometry on primary Vδ1 γδ T cells, 4 C, anti-human IgG-APC secondary, median fluorescence
Description: Target cells were stained with varying concentrations of antibody, followed by a fluorescent anti-human IgG detection antibody. All incubation steps were performed at 4° C. and mAb binding was determined using flow cytometry to measure the median level of fluorescence. Logarithmic four parameter dose-response curves were fitted using GraphPad Prism 9.
Target cells were detached from tissue culture flask, resuspended in PBS and seeded at a final density of 100,000 cells per well in v-bottom 96-well plates. Cells underwent centrifugation and the cell pellets were resuspended in FcR blocking reagent according to the manufacturer's instructions, and incubated for 20 minutes at 4C prior to a further wash. Antibodies were diluted to 500 nM in PBS and serially diluted 1:10 in PBS to 50 μM, and added to the cells, followed by a 20-minute incubation at 4C. To determine the quantity of mAb bound to the cell surface, the cells were then stained with a murine anti-human IgG secondary antibody, conjugated to APC (dilution: 1:100) in addition to a viability dye. Following 20-minute incubation at 4C, the cells were washed twice, and fluorescence measured using the MACSQuant.

| EC50 (read off the curve) [nM] | Binder |
| --- | --- |
| ~0.8 | B7 |

Target: T3, L1 (DV1-GV4), recombinant soluble human …
Test: SPR

| Kd [nM] | Binder |
| --- | --- |
| 152 | B8 |
| 115 | B1 |
| 0.464 | B9 |
| 0.378 | B10 |
| 0.511 | B11 |
| 0.818 | B12 |
| 0.462 | B13 |

Target: T4, human EGFR, recombinant protein (human, UniProt P00533 25-645)
T4 construct: Bought protein; also called human EGFR antigen
Test: SPR

| Kd [nM] | Binder |
| --- | --- |
| 1.14 | B8 |
| 0.655 | B14 |
| 2.78 | B15 |
| 1.49 | B7 |
| 1.35 | B9 |
| 1.37 | B10 |
| 2.35 | B11 |
| 19.2 | B12 |
| 8.63 | B13 |

Target: T4, human EGFR, recombinant protein
Test: SPR (Reichert 4SPR): antibody captured on a Protein A chip, human EGFR flowed at 100 nM

| binding result | Binder |
| --- | --- |
| no binding (tested: 100 nM) | B1 |

Target: T5, EGFR on A431 cells (human, UniProt P00533 25-1210)
T5 construct: whole, on cells; also called EGFR-positive A431; EGFR+A431 target cells
Test: EGF blockade by flow cytometry: A431 cells pre-incubated with antibody 30 min at 4 C, then EGF-AF647; EGF binding MFI
Description: Cells were then incubated for 1 hour at 4 degrees C., washed and stained with Live/dead dye (eFluor 520, Fisher) and incubated for a further 20 min at 4 degrees. The cells were washed in FACS buffer and resuspended in Cell Fix (BD sciences) before incubating overnight at 4° C. in the dark.

| EC50 [nM] | Binder |
| --- | --- |
| 2.92 | B7 |
| 8.66 | B13 |

Target: T6, EGFR on HT-29 cells (human, UniProt P00533)
T6 construct: full length, cell surface; also called EGFR+ colon cancer cell line HT-29; HT-29 tumour cell
Test: flow cytometry on HT-29 cells, 20 min at 4 C, anti-human IgG secondary
Description: After washing, cells were incubated for a further 20 minutes with anti-human IgG secondary antibodies (Jackson Immunoresearch) and live/dead stain (eFluor 780, Invitrogen) before washing and fixing using CellFix. The amount of antibody bound to each cell type was determined using flow cytometry (MACSQuant Analyser 10, Miltenyi Biotech).

| EC50 [nM] | Binder |
| --- | --- |
| 0.537 | B7 |

Target: T3, L1 (DV1-GV4), recombinant soluble human …
Test: SPR (Reichert 4SPR): antibody on a Protein A chip, human Vδ1 antigen flowed; column 'Affinity to Vδ1 (nM)'
Description: Human Vδ1 antigen was flown over the cell at a 1:3 dilution series with top concentrations of 50 nM with the following parameters: 180s association, 900s dissociation, flow rate 25 μL/min, running buffer PBS+0.05% Tween-20. The chip surface was regenerated using 20 mM phosphoric acid following each injection. All experiments were performed at room temperature. Steady state fitting was determined according to Langmuir 1:1 binding using TraceDrawer software (Reichert Technologies.

| Kd [nM] | Binder |
| --- | --- |
| 1.26 | B14 |
| 18.3 | B15 |
| 0.24 | B7 |

Target: T1, Vδ1 TCR on human Vδ1-positive γδ T cells
Test: flow cytometry on skin-derived Vδ1+ cells, 20 min at 4 C, anti-human Fc secondary
Description: Cells were washed and stained with an anti-human Fc secondary antibody (Jackson Immunoresearch) and a viability dye for dead cells (eFlour 780, Invitrogen) for 20 minutes at 4° C. The cells were washed in FACS buffer and resuspended in Cell Fix (BD sciences) before analysis on a MACSQuant Analyser 10 flow cytometer (Miltenyi).

| EC50 [nM] | EC95 [nM] | Binder |
| --- | --- | --- |
| 0.279 | 2.77 | B14 |
| 0.209 | 2.25 | B15 |
| 0.276 | 2.7 | B7 |

Target: T3, L1 (DV1-GV4), recombinant soluble human …
Test: SPR (Reichert 4SPR), antibody on Protein A chip, human Vδ1 antigen as analyte, 1:1 fit, mean of two replicates (Avg KD)
Remark: another data set of the same source
Excerpt: as §3, §4

| Kd [nM] | Binder |
| --- | --- |
| 149 | B1 |

— patent publication US20240132599A1 (GAMMADELTA THERAPEUTICS, published 2024)
